This test addresses T1, nSR100 (Mus musculus, UniProt Q8BKA3).
T1 construct: host or cells: mouse N2A cells
T1 sequence (Q8BKA3 1-608): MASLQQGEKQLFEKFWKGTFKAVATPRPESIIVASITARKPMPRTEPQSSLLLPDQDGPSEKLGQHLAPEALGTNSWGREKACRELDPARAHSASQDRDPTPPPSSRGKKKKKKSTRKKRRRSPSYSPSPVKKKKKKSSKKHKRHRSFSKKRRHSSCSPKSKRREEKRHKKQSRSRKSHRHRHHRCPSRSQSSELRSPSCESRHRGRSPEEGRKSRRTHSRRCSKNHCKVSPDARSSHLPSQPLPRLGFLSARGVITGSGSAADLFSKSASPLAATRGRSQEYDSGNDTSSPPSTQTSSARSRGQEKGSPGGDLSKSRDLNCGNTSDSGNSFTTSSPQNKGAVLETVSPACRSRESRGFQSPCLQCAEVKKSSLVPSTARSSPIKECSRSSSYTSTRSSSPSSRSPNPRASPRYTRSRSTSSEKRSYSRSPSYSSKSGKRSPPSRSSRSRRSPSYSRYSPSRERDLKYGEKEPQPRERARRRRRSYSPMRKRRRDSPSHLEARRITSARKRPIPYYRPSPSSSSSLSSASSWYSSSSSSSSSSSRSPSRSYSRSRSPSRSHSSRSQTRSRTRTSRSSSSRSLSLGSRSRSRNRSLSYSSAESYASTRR
Put plainly: AP-MS nSR100 interaction partners from mouse N2A cells (Table 5). It counts as binding. The following applies: for AvgP (average of the SAINT scores) / MaxP (maximal SAINT score): bait Srrm4; for FoldChange between the prey Avg spectra of the bait and control purifications: bait Srrm4, 0.1 added to prevent division by 0; for AvgSpec (average number of spectra per replicate): bait Srrm4, 2 replicates; for Spectra (number of spectra for the prey in the purification of the bait): AP-MS; for SpecSum: bait Srrm4, sum of spectra over 2 replicates.

Where [1] appears, read: bait Srrm4, biological replicate 1 (first number of the cell).
[2] abbreviates: bait Srrm4, biological replicate 2 (second number of the cell).

From the text: By applying affinity purification coupled to mass-spectrometry (AP-MS), several interaction nSR100 partner proteins were detected that provide insight into mechanisms of post-translational regulation of nSR100 levels.

B1: Ftsjd2 (protein, UniProt Q9DBC3 1-837, looked up)
Cap-specific mRNA …: MKRRTDPECTAPLKKQKRIGELARHLSSTSDDEPLSSVNHAAKASATSLSGSDSETEGKQPCSDDFKDAFKADSLVEGTSSRYSMYNSVSQRLMAKMGFREGEGLGKYSQGRKDIVETSNQKGRRGLGLTLQGFDQELNVDWRDEPEPNACEQVSWFPECTTEIPDSREMSDWMVVGKRKMVIEDETEFCGEELLHSMLKCKSVFDILDGEEMRRARTRANPYEMIRGVFFLNRAAMKMANMDFVFDRMFTNPLDSSGKPLLKESDIDLLYFADVCAGPGGFSEYVLWRKKWHAKGFGMTLKGPNDFKLEDFYSASSELFEPYYGEGGVDGDGDITRPENINAFRNFVLDNTDRKGVHFVMADGGFSVEGQENLQEILSKQLLLCQFLMALSVVRTGGHFVCKTFDLFTPFSVGLIYLLYCCFERVCLFKPITSRPANSERYVVCKGLKVGIDDVREYLFSVNIKLNQLRNTESDVNLVVPLMVIKGDHEFNDYMIRSNESYCSLQIKALAKIHAFVQDTTLSEPRQAEIRKECLQLWKIPDQARVAPSSSDPKFKFFELIKDTDINIFSYKPTLLTAKTLEKIRPVLEYRCMVSGSEQKFLLGLGKSQIYTWDGRQSDRWVKLDLKTELPRDTLLCVEIVHELKGEGKAQRKISAIHILDVLVLNGSDVREQHFNQRIQLAEKFVKAVSKPSRPDMNPIRVKEVYRLEEMEKIFVRLEMKLIKGSGGTPKLSYTGRDDRHFVPTGVYIVRTVNEPWTMGFSKSNNRKFFYNKKTQKSVYALPTESIAPFHTCYYSRLFWEWGDGFHMRDSQKPQDPDKLSKEDVLSFIQSHNPLGP
As to B1, the “AvgP (average of the SAINT scores)” value turned out to be 1; the “MaxP (maximal SAINT score)” value came to 1; the “FoldChange between the prey Avg spectra of the bait and control purifications” value (“FoldChange between the prey Avg spectra” below) came out at 40; the “AvgSpec (average number of spectra per replicate)” value is reported as 4. The same molecule displayed a SpecSum of 8. Besides, the “Spectra (number of spectra for the prey in the purification of the bait)” value under setting [1] was 4|4. The “Spectra (number of spectra for the prey in the purification of the bait)” value under setting [2] is 4|4.

B2: Snip1 (protein, UniProt Q8BIZ6 1-383, looked up)
Smad nuclear-interacting …: MKAGKSERERSGRRRHRSGDALTTVVVKQERLSPEPVAHRRPDAPAASLSPPAAEPGHSGHRGSRARSPAKKKSKSSGRRSKSPRTKRSQSPHYPMVKVKQEREDHPRRGREDRQHREPSEQEHRRARNSERDRHRGHSRQGRSSDERPVSGQDRDRDSQNLQAQEEERDFHNARRREHRQQNESAGSEAQEVIPRPAGNRSKEVPVKEKPSFELSGALLEDTNTFRGVVIKYSEPPEARIPKKRWRLYPFKNDEVLPVMYIHRQSAYLLGRHRRIADIPIDHPSCSKQHAVFQYRLVEYTRADGTVGRRVKPYIIDLGSGNGTFLNNKRIEPQRYYELKEKDVLKFGFSSREYVLLHESSDTSELDRKEDEDDEEEEMVSDS
For the molecule B2, the “AvgP (average of the SAINT scores)” value was 1; the “MaxP (maximal SAINT score)” value stood at 1; the “FoldChange between the prey Avg spectra” value is listed as 70; the “AvgSpec (average number of spectra per replicate)” value came out at 7. Further, the SpecSum turned out to be 14. In addition, under setting [1], the “Spectra (number of spectra for the prey in the purification of the bait)” value is recorded as 5. In addition, the “Spectra (number of spectra for the prey in the purification of the bait)” value under setting [2] is on record as 9.

B3: Ap2b1 (protein, UniProt Q9DBG3 2-937, looked up)
AP-2 complex subunit beta: TDSKYFTTNKKGEIFELKAELNNEKKEKRKEAVKKVIAAMTVGKDVSSLFPDVVNCMQTDNLELKKLVYLYLMNYAKSQPDMAIMAVNSFVKDCEDPNPLIRALAVRTMGCIRVDKITEYLCEPLRKCLKDEDPYVRKTAAVCVAKLHDINAQMVEDQGFLDSLRDLIADSNPMVVANAVAALSEISESHPNSNLLDLNPQNINKLLTALNECTEWGQIFILDCLSNYNPKDDREAQSICERVTPRLSHANSAVVLSAVKVLMKFLELLPKDSDYYNMLLKKLAPPLVTLLSGEPEVQYVALRNINLIVQKRPEILKQEIKVFFVKYNDPIYVKLEKLDIMIRLASQANIAQVLAELKEYATEVDVDFVRKAVRAIGRCAIKVEQSAERCVSTLLDLIQTKVNYVVQEAIVVIRDIFRKYPNKYESIIATLCENLDSLDEPDARAAMIWIVGEYAERIDNADELLESFLEGFHDESTQVQLTLLTAIVKLFLKKPSETQELVQQVLSLATQDSDNPDLRDRGYIYWRLLSTDPVTAKEVVLSEKPLISEETDLIEPTLLDELICHIGSLASVYHKPPNAFVEGSHGIHRKHLPIHHGSTDAGDSPVGTTTTTNLEQPQVIPSQGDLLGDLLNLDLGPPVNVPQVSSMQMGAVDLLGGGLDSLVGQSFIPSSVPATFAPSPTPAVVSSGLNDLFELSTGIGMAPGGYVAPKAVWLPAVKAKGLEISGTFTHRQGHIYMEMNFTNKALQHMTDFAIQFNKNSFGVIPSTPLAIHTPLMPNQSIDVSLPLNTLGPVMKMEPLNNLQVAVKNNIDVFYFSCLIPLNVLFVEDGKMERQVFLATWKDIPNENELQFQIKECHLNADTVSSKLQNNNVYTIAKRNVEGQDMLYQSLKLTNGIWILAELRIQPGNPNYTLSLKCRAPEVSQYIYQVYDSILKN
B3: the “AvgP (average of the SAINT scores)” value is listed as 1; the “MaxP (maximal SAINT score)” value amounted to 1; the “FoldChange between the prey Avg spectra” value was 5.13; the “AvgSpec (average number of spectra per replicate)” value was 79.5. Also, the SpecSum was 159. Also, the “Spectra (number of spectra for the prey in the purification of the bait)” value under setting [1] came out at 83. For the same molecule, under setting [2], the “Spectra (number of spectra for the prey in the purification of the bait)” value amounted to 76.

B4: Sf3b3 (protein, UniProt Q921M3 1-1217, looked up)
Splicing factor 3B subunit 3: MFLYNLTLQRATGISFAIHGNFSGTKQQEIVVSRGKILELLRPDPNTGKVHTLLTVEVFGVIRSLMAFRLTGGTKDYIVVGSDSGRIVILEYQPSKNMFEKIHQETFGKSGCRRIVPGQFLAVDPKGRAVMISAIEKQKLVYILNRDAAARLTISSPLEAHKANTLVYHVVGVDVGFENPMFACLEMDYEEADNDPTGEAAANTQQTLTFYELDLGLNHVVRKYSEPLEEHGNFLITVPGGSDGPSGVLICSENYITYKNFGDQPDIRCPIPRRRNDLDDPERGMIFVCSATHKTKSMFFFLAQTEQGDIFKITLETDEDMVTEIRLKYFDTVPVAAAMCVLKTGFLFVASEFGNHYLYQIAHLGDDDEEPEFSSAMPLEEGDTFFFQPRPLKNLVLVDELDSLSPILFCQIADLANEDTPQLYVACGRGPRSSLRVLRHGLEVSEMAVSELPGNPNAVWTVRRHIEDEFDAYIIVSFVNATLVLSIGETVEEVTDSGFLGTTPTLSCSLLGDDALVQVYPDGIRHIRADKRVNEWKTPGKKTIVKCAVNQRQVVIALTGGELVYFEMDPSGQLNEYTERKEMSADVVCMSLANVPPGEQRSRFLAVGLVDNTVRIISLDPSDCLQPLSMQALPAQPESLCIVEMGGTEKQDELGERGSIGFLYLNIGLQNGVLLRTVLDPVTGDLSDTRTRYLGSRPVKLFRVRMQGQEAVLAMSSRSWLSYSYQSRFHLTPLSYETLEFASGFASEQCPEGIVAISTNTLRILALEKLGAVFNQVAFPLQYTPRKFVIHPESNNLIIIETDHNAYTEATKAQRKQQMAEEMVEAAGEDERELAAEMAAAFLNENLPESIFGAPKAGNGQWASVIRVMNPIQGNTLDLVQLEQNEAAFSVAVCRFSNTGEDWYVLVGVAKDLILSPRSVAGGFVYTYKLVNNGEKLEFLHKTPVEEVPAAIAPFQGRVLIGVGKLLRVYDLGKKKLLRKCENKHIANYISGIQTIGHRVIVSDVQESFIWVRYKRNENQLIIFADDTYPRWVTTASLLDYDTVAGADKFGNICVVRLPPNTNDEVDEDPTGNKALWDRGLLNGASQKAEVIMNYHVGETVLSLQKTTLIPGGSESLVYTTLSGGIGILVPFTSHEDHDFFQHVEMHLRSEHPPLCGRDHLSFRSYYFPVKNVIDGDLCEQFNSMEPNKQKNVSEELDRTPPEVSKKLEDIRTRYAF
Consider B4, for which the “AvgP (average of the SAINT scores)” value is 1; the “MaxP (maximal SAINT score)” value is 1; the “FoldChange between the prey Avg spectra” value came out at 3.48; the “AvgSpec (average number of spectra per replicate)” value came to 97.5. The molecule further showed a SpecSum of 195. Besides, under setting [1], the “Spectra (number of spectra for the prey in the purification of the bait)” value amounted to 90. In addition, under setting [2], the “Spectra (number of spectra for the prey in the purification of the bait)” value turned out to be 105.

B5: Sap18 (protein, UniProt O55128 2-153, looked up)
Histone deacetylase complex …: AVESRVTQEEIKKEPEKPIDREKTCPLLLRVFTTNNGRHHRMDEFSRGNVPSSELQIYTWMDATLKELTSLVKEVYPEARKKGTHFNFAIVFMDLKRPGYRVKEIGSTMSGRKGTDDSMTLQSQKFQIGDYLDIAITPPNRAPPSSGRMRPY
Regarding B5, the “AvgP (average of the SAINT scores)” value is listed as 1; the “MaxP (maximal SAINT score)” value is recorded as 1; the “FoldChange between the prey Avg spectra” value is reported as 225; the “AvgSpec (average number of spectra per replicate)” value was 22.5. In addition, the SpecSum was 45. Under setting [1], the “Spectra (number of spectra for the prey in the purification of the bait)” value was 17. Further, under setting [2], the “Spectra (number of spectra for the prey in the purification of the bait)” value was determined as 28.

These data come from patent publication US10772928B2, “Modulation and detection of a neuronal alternative splicing regulatory network for treatment and diagnosis of neurological disorders” (The Governing Council of the University of Toronto, priority 2014, dated 2020).
